Consider 1 molecule from patent publication US20110212162A1 (SANFORD BURNHAM MEDICAL RESEARCH INSTITUTE, published 2011).

The target in the assay is T1, chemokine receptor CXCR4, expressed on transfected 293T cells (UniProt P61073 1-352, limits assumed).
T1 construct: whole, on cells; also called CXCR4 receptor
Briefly: phage binding to transfected 293T cells; bound phage rescued and titrated. How it is done:
Briefly, plasmid (10 μg) was mixed with 900 μl of serumfree DMEM and 50 μl of FuGene and incubated for 15 min at room temperature before adding the mixture to the cells. The cells were detached using EDTA after 48 hrs post transfection and washed with PBS containing 1% BSA. Phage (5×10⁹ pfu) were incubated with the transfected cells and bound phage were rescued and titrated. For competitive binding assay, the cognate peptide (150 μg/ml) or antibody (50 μg/ml) was added during incubating of the phage with cells. Targeted proapoptotic peptide treatment of tumor-bearing mice Prostate cancer model. Orthotopic xenografted prostate tumors were established by injecting 1×10⁶ PPC1 human prostate cancer cells into the mouse prostate. Fifteen days post inoculation, the mice were intravenously injected with D(KLAKLAK)₂-[…] (SEQ ID NO:41), an equimolar mixture of D(KLAKLAK)₂ (SEQ ID NO:19) and […] (SEQ ID NO:6), or PBS. Biweekly injections of 100 μg/dose/mouse were given for three weeks. Melanoma model. Nude BALB/c mice were subcutaneously injected with 1×10⁶ C8161 human melanoma cells. Treatment started when mean tumor volumes reached about 100 mm3. Mice with size-matched tumors were randomized into three groups. […] The mice were monitored for weight loss, and tumors were dissected and weighed at the termination of the experiment. […]

T1 sequence (P61073 whole entry): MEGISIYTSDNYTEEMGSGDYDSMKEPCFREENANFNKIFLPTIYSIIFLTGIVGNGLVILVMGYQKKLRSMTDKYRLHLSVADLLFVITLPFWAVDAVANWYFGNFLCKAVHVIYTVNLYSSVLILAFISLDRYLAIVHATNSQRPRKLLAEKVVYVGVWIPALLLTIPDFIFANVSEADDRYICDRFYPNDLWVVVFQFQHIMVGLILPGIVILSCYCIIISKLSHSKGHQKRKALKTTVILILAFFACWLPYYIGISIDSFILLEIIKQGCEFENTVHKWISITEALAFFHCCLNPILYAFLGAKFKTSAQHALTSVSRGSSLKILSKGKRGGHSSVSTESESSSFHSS

With CGNKRTRGC [LyP-1 phage (T7 phage displaying the peptide CGNKRTRGC, SEQ ID NO:16)], the binding result is given as “no binding (tested: 5x10^9 pfu phage)”.
